Measurements from patent US20040072750A1, “Compounds and methods for the modulation of CD154” (priority 2001, published 2004).
Bridge positions count the residues as written; N and C are the ends. Square brackets hold non-standard residues; d marks the D form. Peptide text beside a SMILES is read from it. hArg = N=C(N)NCCCC[C@H](N)C(=O)O; Mpa = O=C(O)CCS

B1: rsCD154: bacterially expressed recombinant human soluble CD154 (108 a.a-261 a.a.), 18-kDa protein (protein)
chain: ENSFEMQKGDQNPQIAAHVISEASSKTTSVLQWAEKGYYTMSNNLVTLENGKQLTVKRQGLYYIYAQVTFCSNREASSQAPFIASLCLKSPGRFERILLRAANTHSSAKPCGQQSIHLGGVFELQPGASVFVNVTDPSQVSHGTGFTSFGLLKL

How the values were obtained:
[1] = tested on: platelets; assay: Platelet function (Accumetrics RPFA) in patients undergoing PCI; assay type: in vivo, human; conditions: 10 minutes post final bolus
Protocol: Patients (n=45) undergoing PCI were enrolled. The study was approved by the IRB and all patients signed informed consent. Exclusion criteria included higher risk clinical scenarios mandating, according to institutional clinical practice, the use of GP IIb/IIIa antagonists (i.e., acute ST elevation MI or non q-wave MI with CPK elevation, pain at rest with EKG changes <24 hours, visible thrombus, pain refractory to heparin), pre-procedural GP IIb/IIIa inhibitor treatment, restenotic and graft lesions, and standard conditions excluding GP IIb/IIIa inhibitor use.
All patients received aspirin and intravenous heparin (50-70U/kg) monitored by activated clotting time (ACT) during the procedure. Patients were administered either no GP IIb/IIIa inhibitor, eptifibatide (180 μg/kg double bolus followed by 2 μg/kg/min for 16 h), or abciximab (0.25 mg/kg bolus intravenously followed by 0.125 μg/kg/min for 12 h) at the discretion of the primary operator. Platelet function was monitored using PPACK-anticoagulated blood and the Accumetrics RPFA device at baseline and 10 min post-final bolus. Interventionalists were blinded to RPFA results and not permitted to modify GP IIb-IIIa inhibitor dosing. Post-PCI, patients received clopidogrel (300 mg PO) followed by 75 mg daily.

[2] = tested on: washed platelets; assay: Western blot analysis of immunoprecipitated platelet CD154 (hydrolysis to 18 kDa sCD154); assay type: cell-based, human
Text: As previously described, CD154 exists as a 33/31 kDa doublet in unstimulated platelets.

[3] = tested on: Human umbilical vein endothelial cells (HUVECS); assay: Inflammatory response of endothelial cells to rsCD154 (MCP-1 ELISA, tissue factor clotting assay, ICAM-1/E-Selectin FACS); assay type: cell-based
Protocol: Inflammation in the present invention study was measured by the upregulation of tissue factor on cultured endothelial cells. Endothelial cells were the cells selected for study as this is the most abundant cell exposed to blood and is known to express […], the ligand for CD154 (Yellin, MJ, J. Exp Med, 182: 1857(1995)).
Human umbilical vein endothelial cells (HUVECS) purchased from Clonetics Inc. were cultured with M199 containing 20% FBS, 50 μg/ml endothelial mitogen (Biomedical technologies Inc.) 2 mM glutamine, 1 mM Sodium Pyruvate, 1× Nonessential amino acids, 100 U/ml of penicillin/streptomycin and 100 μg/ml heparin. HUVECS (passage 3-5) grown in 6 well dishes or 96 well tissue culture plates coated with 0.75% bovine skin gelatin (Sigma chemicals) were incubated without and with different concentrations (100 ng-10 μg/ml) of rsCD 154 in the presence of TRAP-1 (monoclonal antibody against hCD154, BD Pharmingen) or MOPC-21 (mouse IgG, Sigma) for 4 hrs at 37° C. in Tyrode's-Hepes buffer (12 mM NaHCO3, 138 mM NaCl, 5.5 mM glucose, 2.9 mM KCl, 10 mM Hepes, 1 mM CaCl2, 1 mM MgCl2, pH 7.4). […]
The supernatants were collected and the concentrations of MCP-1 determined by ELISA. Expression of tissue factor was determined by clotting assays performed with the HUVECS in the 96 well plates. […] The expression of ICAM-1 and E-Selectin was determined by FACS analysis (FACSort, Beckton Dickinson) following release of the HUVECS from the dishes. HUVECS, when exposed to 2 μg/ml rsCD154, secreted 3 fold more MCP-1 after 4 hrs and this increase was blocked by anti-CD154 antibody, but not by an isotype matched control antibody. As measured by clotting assay there was 50% reduction in clotting time, which was reversed in the presence of TRAP-1.

[4] = tested on: washed platelets; assay: β3 integrin tyrosine-759 phosphorylation staining of platelets spread on sCD154; assay type: cell-based, human; conditions: platelets spread on 10 μg/ml sCD154 coated cover slips
Protocol: Further, cover slips were coated with 10 μg/ml sCD154 for 2 hours at 37° C. and blocked with 5% crystalline BSA (Sigma chemicals). 100 μl of washed platelets at 10^7/ml were allowed to spread for 1 hour at 37° C. Non-adhered platelets were washed off with PBS. Adhered platelets were fixed with 4% para-formaldehyde and permeabilized with 0.5% Triton X-100 and 0.5% BSA in PBS. Permeabilized platelets were blocked with 3% goat serum and 2% BSA for 30 min. followed by incubation with a IIIa(p3) integrin cytoplasmic tyrosine-759 phospho-specific polyclonal antibody for 2 hours at room temperature. After 30 minutes washing with PBS containing 0.1% Triton X-100 and 0.5% BSA, the coverslips were incubated with a Alexa 596 goat anti-rabbit antibody and Alexa fluor 488 phalloidin for 40 min. followed by a brief wash and mounted on slides with VECTASHIELD (Vector laboratories, Burlingame, Calif.). Images were recorded using a digital camera, Hamamatsu, ORCA-ER attached to a Nikon fluorescence microscope, eclipse E1000 (Technical Instruments, San Francisco, Calif.). […] The staining was inhibited by β3 759 phospho-peptide confirming the specificity of the antibody (FIG. 11b).

| Molecule | Platelet inhibition (% inhibition) [1] [%] | hydrolysis of CD154 and release of sCD154 from stimulated platelets ([2]; 5 μmol/L TRAP plus 2.5 μmol/L eptifibatide, 30 minutes) | CD154 hydrolysis and appearance of the soluble 18 kDa fragment ([2]; TRAP aggregation, 5 μM eptifibatide) | increased expression of ICAM-1 and E-Selectin ([3]; 2 μg/ml of rsCD154, FACS) [fold] | MCP-1 secretion by HUVECS ([3]; 2 μg/ml rsCD154, 4 hrs) [fold] | reduction in clotting time (tissue factor clotting assay) ([3]; HUVECS exposed to rsCD154) [%] | staining with β3 integrin 759-tyrosine phosphospecific antibody [4] |
| --- | --- | --- | --- | --- | --- | --- | --- |
| N=C(N)NCCCC[C@@H]1NC(=O)CCSSC[C@@H](C(N)=O)NC(=O)[C@@H]2CCCN2C(=O)[C@H](Cc2c[nH]c3ccccc23)NC(=O)[C@H](CC(=O)O)NC(=O)CNC1=O [eptifibatide] ([Mpa][hArg]GDWPC-NH2; disulfide 1-7) | 98±3 | inhibited | prevented |  |  |  |  |
| B1 |  |  |  | 2 | 3 | 50 | stained positive |
